In PMC6561022, “β-Lactam Antibiotics Enhance the Pathogenicity of Methicillin-Resistant Staphylococcus aureus via SarA-Controlled Lipoprotein-Like Cluster Expression”:

T1: SarA-his (Staphylococcus aureus N315, UniProt Q7A732 1-124)
T1 sequence: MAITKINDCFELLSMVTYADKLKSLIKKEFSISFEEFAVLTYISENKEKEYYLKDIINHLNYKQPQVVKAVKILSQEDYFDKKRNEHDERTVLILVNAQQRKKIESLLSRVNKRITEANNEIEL

B1: lpl-P (lpl cluster promoter, SarA box) (dsDNA)
DNA 1: CCACGAGGATTTAATCATAAAATTTCCTCTAGTATTATTAATATTGGAATTTGAAC
DNA 2: GTTCAAATTCCAATATTAATAATACTAGAGGAAATTTTATGATTAAATCCTCGTGG
B2: lpl-PM (GC-rich SarA box mutant) (dsDNA)
DNA 1: CCACGAGGGGGGGGGCGGGGGGGTTCCTCTAGTATTATTAATATTGGAATTTGAAC
DNA 2: GTTCAAATTCCAATATTAATAATACTAGAGGAACCCCCCCGCCCCCCCCCTCGTGG

Target: T1, SarA-his
Assay: EMSA; SarA-his 0-240 pM (so in the source), 10 pmol DNA; 10 mM HEPES pH 7.6, 1 mM EDTA, 2 mM DTT, 50 mM KCl, 0.05% Triton X-100, 5% glycerol; 20 min room temperature; […]
Conditions: protein: recombinant; tags: N-terminal His6 (pET28a); chain copies: 2; label: none (GelRed stain); blunt

Binder | binding result
B1 | binds
B2 | no binding
